Data as given in paper PMC3127751, “Adhesive polypeptides of Staphylococcus aureus identified using a novel secretion library technique in Escherichia coli” (BMC Microbiology, 2011).

B1: fibrinogen (complex)
chain 1: ADSGEGDFLAEGGGVRGPRVVERHQSACKDSDWPFCSDEDWNYKCPSGCRMKGLIDEVNQDFTNRINKLKNSLFEYQKNNKDSHSLTTNIMEILRGDFSSANNRDNTYNRVSEDLRSRIEVLKRKVIEKVQHIQLLQKNVRAQLVDMKRLEVDIDIKIRSCRGSCSRALAREVDLKDYEDQQKQLEQVIAKDLLPSRDRQHLPLIKMKPVPDLVPGNFKSQLQKVPPEWKALTDMPQMRMELERPGGNEITRGGSTSYGTGSETESPRNPSSAGSWNSGSSGPGSTGNRNPGSSGTGGTATWKPGSSGPGSTGSWNSGSSGTGSTGNQNPGSPRPGSTGTWNPGSSERGSAGHWTSESSVSGSTGQWHSESGSFRPDSPGSGNARPNNPDWGTFEEVSGNVSPGTRREYHTEKLVTSKGDKELRTGKEKVTSGSTTTTRRSCSKTVTKTVIGPDGHKEVTKEVVTSEDGSDCPEAMDLGTLSGIGTLDGFRHRHPDEAAFFDTASTGKTFPGFFSPMLGEFVSETESRGSESGIFTNTKESSSHHPGIAEFPSRGKSSSYSKQFTSSTSYNRGDSTFESKSYKMADEAGSEADHEGTHSTKRGHAKSRPV
chain 2: QGVNDNEEGFFSARGHRPLDKKREEAPSLRPAPPPISGGGYRARPAKAAATQKKVERKAPDAGGCLHADPDLGVLCPTGCQLQEALLQQERPIRNSVDELNNNVEAVSQTSSSSFQYMYLLKDLWQKRQKQVKDNENVVNEYSSELEKHQLYIDETVNSNIPTNLRVLRSILENLRSKIQKLESDVSAQMEYCRTPCTVSCNIPVVSGKECEEIIRKGGETSEMYLIQPDSSVKPYRVYCDMNTENGGWTVIQNRQDGSVDFGRKWDPYKQGFGNVATNTDGKNYCGLPGEYWLGNDKISQLTRMGPTELLIEMEDWKGDKVKAHYGGFTVQNEANKYQISVNKYRGTAGNALMDGASQLMGENRTMTIHNGMFFSTYDRDNDGWLTSDPRKQCSKEDGGGWWYNRCHAANPNGRYYWGGQYTWDMAKHGTDDGVVWMNWKGSWYSMRKMSMKIRPFFPQQ
chain 3: YVATRDNCCILDERFGSYCPTTCGIADFLSTYQTKVDKDLQSLEDILHQVENKTSEVKQLIKAIQLTYNPDESSKPNMIDAATLKSRKMLEEIMKYEASILTHDSSIRYLQEIYNSNNQKIVNLKEKVAQLEAQCQEPCKDTVQIHDITGKDCQDIANKGAKQSGLYFIKPLKANQQFLVYCEIDGSGNGWTVFQKRLDGSVDFKKNWIQYKEGFGHLSPTGTTEFWLGNEKIHLISTQSAIPYALRVELEDWNGRTSTADYAMFKVGPEADKYRLTYAYFAGGDAGDAFDGFDFGDDPSDKFFTSHNGMQFSTWDNDNDKFEGNCAEQDGSGWWMNKCHAGHLNGVYYQGGTYSKASTPNGYDNGIIWATWKTRWYSMKKTTMKIIPFNRLTIGEGQQHHLGGAKQAGDV
modifications: plasma fibrinogen (AαBβγ)2, disulfide-linked and glycosylated, fibrinopeptides retained; the main circulating forms are assumed (Aα 610 residues, γA 411 residues). The γA chain is taken from PDB …

Columns and labels:
Assay in all cases: SPR; Biacore T100, CM5 chip, Fn and Fg amine-coupled; His-polypeptides as analytes at 0.5, 1.0, 1.5, 2.0 and 2.5 μM in PBS, 30 μl/min, single cycle kinetics; steady state affinity constants
Details in all cases: both partners purified
human plasma fibronectin = human plasma fibronectin (human)
fibrinogen = molecular target: B1
His-ΔEbh = molecular target: T1, His-ΔEbh (S. aureus subsp. aureus NCTC 8325-4, UniProt Q2FYJ6 40-9535)
T1 construct: the Ebh gene fragment of library clone ΔEbh (as the staphylococcal part of m3), recloned by PCR into pQE30; also called ΔEbh purified 6xHis polypeptide; source: E. coli cytoplasm (pQE30), purified under native conditions (QIAexpress System), dialysed against PBS; not shown: His6, N-terminal, kept

His-ΔCoa = His-ΔCoa (S. aureus subsp. aureus NCTC 8325-4, UniProt Q2G1D3 1-636)

human plasma fibronectin (human), sequence (P02751 other isoform, or with tags, fused parts or gaps, chain 1 of 2): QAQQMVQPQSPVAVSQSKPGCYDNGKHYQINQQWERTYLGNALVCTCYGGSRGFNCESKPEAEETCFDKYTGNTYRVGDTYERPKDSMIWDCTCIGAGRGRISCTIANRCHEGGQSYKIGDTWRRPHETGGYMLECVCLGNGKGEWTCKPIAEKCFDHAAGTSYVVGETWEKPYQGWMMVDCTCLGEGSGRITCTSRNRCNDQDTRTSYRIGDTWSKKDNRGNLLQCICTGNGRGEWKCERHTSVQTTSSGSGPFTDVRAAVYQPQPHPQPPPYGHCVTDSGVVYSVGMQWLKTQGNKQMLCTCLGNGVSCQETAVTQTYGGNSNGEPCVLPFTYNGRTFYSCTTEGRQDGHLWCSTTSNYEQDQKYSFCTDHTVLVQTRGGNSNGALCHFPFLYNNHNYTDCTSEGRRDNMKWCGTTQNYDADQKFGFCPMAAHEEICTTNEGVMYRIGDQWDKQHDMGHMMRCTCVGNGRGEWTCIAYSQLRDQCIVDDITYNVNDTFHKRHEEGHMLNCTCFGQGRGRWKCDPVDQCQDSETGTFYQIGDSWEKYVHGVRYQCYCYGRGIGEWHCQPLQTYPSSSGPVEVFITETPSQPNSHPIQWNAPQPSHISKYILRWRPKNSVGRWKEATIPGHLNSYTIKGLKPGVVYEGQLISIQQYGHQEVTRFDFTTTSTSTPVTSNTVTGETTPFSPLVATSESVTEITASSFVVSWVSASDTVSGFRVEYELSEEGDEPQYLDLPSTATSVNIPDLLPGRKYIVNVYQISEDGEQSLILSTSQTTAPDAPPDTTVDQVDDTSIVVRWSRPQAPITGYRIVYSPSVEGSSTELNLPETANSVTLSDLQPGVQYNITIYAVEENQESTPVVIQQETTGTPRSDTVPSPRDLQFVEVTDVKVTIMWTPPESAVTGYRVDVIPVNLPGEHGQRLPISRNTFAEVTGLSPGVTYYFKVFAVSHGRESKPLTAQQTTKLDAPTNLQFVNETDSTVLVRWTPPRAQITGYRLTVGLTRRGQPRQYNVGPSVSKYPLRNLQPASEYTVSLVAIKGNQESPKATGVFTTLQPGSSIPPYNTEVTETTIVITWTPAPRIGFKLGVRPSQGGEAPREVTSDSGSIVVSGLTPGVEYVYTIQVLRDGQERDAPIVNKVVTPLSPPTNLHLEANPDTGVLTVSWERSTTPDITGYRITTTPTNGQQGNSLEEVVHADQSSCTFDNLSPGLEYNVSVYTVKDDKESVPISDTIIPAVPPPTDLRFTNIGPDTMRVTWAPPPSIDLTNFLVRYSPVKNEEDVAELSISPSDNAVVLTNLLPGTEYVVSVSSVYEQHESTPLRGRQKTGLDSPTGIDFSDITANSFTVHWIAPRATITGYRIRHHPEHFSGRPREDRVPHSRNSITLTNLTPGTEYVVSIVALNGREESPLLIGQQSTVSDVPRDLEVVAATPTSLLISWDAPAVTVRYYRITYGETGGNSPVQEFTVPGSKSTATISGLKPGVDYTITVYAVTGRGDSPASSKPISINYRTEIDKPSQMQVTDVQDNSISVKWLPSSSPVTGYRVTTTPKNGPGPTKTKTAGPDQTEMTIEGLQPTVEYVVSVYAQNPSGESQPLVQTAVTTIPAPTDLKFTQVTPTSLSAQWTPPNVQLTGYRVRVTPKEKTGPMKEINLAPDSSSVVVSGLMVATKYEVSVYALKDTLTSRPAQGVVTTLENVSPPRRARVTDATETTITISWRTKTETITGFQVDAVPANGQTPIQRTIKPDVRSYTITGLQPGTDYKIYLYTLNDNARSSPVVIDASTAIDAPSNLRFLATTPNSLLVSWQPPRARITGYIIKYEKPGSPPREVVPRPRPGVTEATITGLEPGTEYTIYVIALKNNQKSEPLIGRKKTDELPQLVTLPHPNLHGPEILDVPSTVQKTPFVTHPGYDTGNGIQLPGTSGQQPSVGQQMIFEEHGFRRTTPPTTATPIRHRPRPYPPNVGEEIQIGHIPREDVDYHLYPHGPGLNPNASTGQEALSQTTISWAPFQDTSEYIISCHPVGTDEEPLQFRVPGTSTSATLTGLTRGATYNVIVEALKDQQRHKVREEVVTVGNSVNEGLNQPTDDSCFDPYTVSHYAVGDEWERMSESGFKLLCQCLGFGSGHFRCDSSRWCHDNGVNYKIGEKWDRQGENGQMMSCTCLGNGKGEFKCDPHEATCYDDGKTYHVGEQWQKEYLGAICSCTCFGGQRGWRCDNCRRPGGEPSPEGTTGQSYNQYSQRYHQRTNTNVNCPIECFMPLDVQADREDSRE
human plasma fibronectin (human), sequence (P02751 other isoform, or with tags, fused parts or gaps, chain 2 of 2): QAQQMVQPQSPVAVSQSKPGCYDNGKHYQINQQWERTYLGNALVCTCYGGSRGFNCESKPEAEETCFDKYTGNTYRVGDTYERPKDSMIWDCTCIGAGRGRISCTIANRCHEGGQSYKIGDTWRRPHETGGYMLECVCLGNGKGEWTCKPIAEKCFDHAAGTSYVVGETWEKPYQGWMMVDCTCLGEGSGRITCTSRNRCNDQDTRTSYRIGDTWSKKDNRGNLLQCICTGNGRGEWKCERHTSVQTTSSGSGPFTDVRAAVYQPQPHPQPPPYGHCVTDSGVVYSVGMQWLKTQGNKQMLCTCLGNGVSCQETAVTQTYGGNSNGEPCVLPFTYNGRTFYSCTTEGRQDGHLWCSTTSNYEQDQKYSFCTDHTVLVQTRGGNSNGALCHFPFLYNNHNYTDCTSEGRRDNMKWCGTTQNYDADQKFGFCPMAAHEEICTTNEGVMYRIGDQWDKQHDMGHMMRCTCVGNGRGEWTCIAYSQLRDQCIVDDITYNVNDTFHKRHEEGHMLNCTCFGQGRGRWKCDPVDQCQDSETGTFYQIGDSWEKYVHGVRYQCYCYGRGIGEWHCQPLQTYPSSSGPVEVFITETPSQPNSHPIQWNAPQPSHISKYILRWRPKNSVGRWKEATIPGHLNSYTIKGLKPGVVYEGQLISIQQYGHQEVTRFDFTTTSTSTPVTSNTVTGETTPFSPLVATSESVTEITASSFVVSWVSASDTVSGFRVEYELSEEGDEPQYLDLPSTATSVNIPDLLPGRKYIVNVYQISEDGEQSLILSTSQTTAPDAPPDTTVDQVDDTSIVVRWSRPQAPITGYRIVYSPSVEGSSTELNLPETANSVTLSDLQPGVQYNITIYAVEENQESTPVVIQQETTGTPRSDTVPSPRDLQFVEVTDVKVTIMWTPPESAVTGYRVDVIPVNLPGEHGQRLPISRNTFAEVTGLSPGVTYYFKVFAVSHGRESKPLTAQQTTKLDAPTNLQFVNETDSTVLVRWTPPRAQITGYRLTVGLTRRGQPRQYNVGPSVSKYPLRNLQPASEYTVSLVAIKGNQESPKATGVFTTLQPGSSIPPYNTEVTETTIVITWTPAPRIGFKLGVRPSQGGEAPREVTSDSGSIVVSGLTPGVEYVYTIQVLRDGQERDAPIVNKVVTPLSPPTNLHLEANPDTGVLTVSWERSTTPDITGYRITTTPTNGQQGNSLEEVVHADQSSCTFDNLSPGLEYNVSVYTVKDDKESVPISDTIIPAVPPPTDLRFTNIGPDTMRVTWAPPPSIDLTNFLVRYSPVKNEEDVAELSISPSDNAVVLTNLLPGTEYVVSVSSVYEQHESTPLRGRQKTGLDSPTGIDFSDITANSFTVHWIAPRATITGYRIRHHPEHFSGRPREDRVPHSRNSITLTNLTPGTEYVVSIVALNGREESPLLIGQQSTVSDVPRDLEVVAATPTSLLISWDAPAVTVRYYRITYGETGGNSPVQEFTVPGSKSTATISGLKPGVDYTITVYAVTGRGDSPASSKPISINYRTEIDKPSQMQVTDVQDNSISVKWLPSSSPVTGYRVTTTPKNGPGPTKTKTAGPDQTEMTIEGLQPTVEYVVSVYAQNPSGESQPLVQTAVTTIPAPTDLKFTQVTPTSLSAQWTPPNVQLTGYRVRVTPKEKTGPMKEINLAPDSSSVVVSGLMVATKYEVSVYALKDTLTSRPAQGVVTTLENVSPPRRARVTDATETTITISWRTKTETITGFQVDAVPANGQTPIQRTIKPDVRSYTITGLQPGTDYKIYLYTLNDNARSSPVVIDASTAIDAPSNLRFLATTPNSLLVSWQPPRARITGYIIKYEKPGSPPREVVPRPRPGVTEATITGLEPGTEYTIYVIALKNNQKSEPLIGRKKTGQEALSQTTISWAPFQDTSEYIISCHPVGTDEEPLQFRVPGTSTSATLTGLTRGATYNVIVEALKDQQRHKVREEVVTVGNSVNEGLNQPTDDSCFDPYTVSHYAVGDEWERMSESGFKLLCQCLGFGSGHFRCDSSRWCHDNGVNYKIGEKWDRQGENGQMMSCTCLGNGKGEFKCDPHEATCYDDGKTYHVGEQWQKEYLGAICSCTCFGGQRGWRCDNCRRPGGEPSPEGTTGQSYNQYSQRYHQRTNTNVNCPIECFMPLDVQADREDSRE

| Binder | Kd (human plasma fibronectin) [µM] | Kd (fibrinogen) [µM] | Kd (His-ΔEbh) [µM] | Kd (His-ΔCoa) [µM] |
| --- | --- | --- | --- | --- |
| His-ΔPurK (domain or fragment, the PurK gene fragment of library clone ΔPurK (as the staphylococcal part of m5), recloned by PCR into pQE30; also called ΔPurK purified 6xHis polypeptide; source: E. coli cytoplasm (pQE30), purified under native conditions (QIAexpress System), dialysed against PBS; not shown: His6, N-terminal, kept) MNFNKLKFGATIGIIGGGQLGKMMAQSAQKMGYKVVVLDPSEDCPCRYVAHEFIQAKYDDEKALNQLGQKCDVITYEFENISAQQLKLLCEKYNIPQGYQAIQLLQDRLTEKETLKSAGTKVVPFISVKESTDIDKAIETLGYPFIVKTRFGGYDGKGQVLINNEKDLQEGFKLIETSECVAEKYLNIKKEVSLTVTRGNNNQITFFPLQENEHRNQILFKTIVPARIDKTAEAKEQVNKIIQSIHFIGTFTVEFFIDSNNQLYVNEIAPRPHNSGHYSIEACDYSQFDTHILAVTGQSLPNSIELLKPAVMMNLLGKDLDLLENEFNEHPEWHLHIYGKSERKDSRKMGHMTVLTNDVNQTEQDMYAKFEGSN | 0.443 | 5.39 | – | – |
| His-ΔUsp (domain or fragment, the Usp-like gene fragment of library clone ΔUsp (as the staphylococcal part of m7), recloned by PCR into pQE30; also called ΔUsp purified 6xHis polypeptide; source: E. coli cytoplasm (pQE30), purified under native conditions (QIAexpress System), dialysed against PBS; not shown: His6, N-terminal, kept) MITYKNILIAVDGSHEAEWAFNRAVGVAKRNDAKLTIVNVIDSRTYSSYEVYDAQFTEKSKHFAEELLNGYKEVATNAGVKDVETRLEFGSPKSIIPKKLAHEINADLIMSGTSGLNAVERFIVGSVSESIVRHAPCDVLVVRTEELPADFQPQVATTQLREKYQN | – | 6.45 | – | – |
| His-ΔFnBPA (domain or fragment, the FnBPA gene fragment of library clone ΔFnBPA (as the staphylococcal part of m2); also called ΔFnBPA purified 6xHis polypeptide; source: E. coli cytoplasm (pQE30), purified under native conditions (QIAexpress System), dialysed against PBS; not shown: His6, N-terminal, kept) ASEQKTTTVEENGNSATDNKTSETQTTATNVNHIEETQSYNATVTEQPSNATQVTTEEAPKAVQAPQTAQPANIETVKEEVVKEEAKPQVKETTQSQDNSGDQRQVDLTPKKATQNQVAETQVEVAQPRTASESKPRVTRSADVAEAKEASNAKVETGTDVTSKVTVEIGSIEGHNNTNKVEPHAGQRAVLKYKLKFENGLHQGDYFDFTLSNNVNTHGVSTARKVPEIKNGSVVMATGEVLEGGKIRYTFTNDIEDKVDVTAELEINLFIDPKTVQTNGNQTITSTLNEEQTSKELDVKYKDGIGNYYANLNGSIETFNKANNRFSHVAFIKPNNGKTTSVTVTGTLMKGSNQNGNQPKVRIFEYLGNNEDIAKSVYANTTDTSKFKEVTSNMSGNLNLQNNGSYSLNIENLDKTYVVHYDGEYLNGTDEVDFRTQMVGHPEQLYKYYYDRGYTLTWDNGLVLYSNKANGNEKNGPIIQNNKFEYKEDTIKETLTGQYDKNLVTTVEEEYDSSTLDIDYHTAIDGGGGYVDGYIETIEETDSSAIDIDYHTAVDSEAGHVGGYTESSEESNPIDFEESTHENSKHHADVVEYEEDTNPGGGQVTTESNLVEFDEESTKGIVTGAVSDHTTVEDTKEYTTESNLIELVDELPEEHGQAQGPVEEITKNNHHISHSGLGTENGHGNYDVIEEIEENSHVDIKSELGYEGGQNSGNQSFEEDTEEDKPKYEQGGNIVDIDFDSVPQIHGQNKGNQSFEEDTEKDKPKYEHGGNIIDIDFDSVPHIHGFNKHTEIIEEDTNKDKPSYQFGGHNSVDFEEDTLPKVSGQNEGQQTIEEDTTPPIVPPTPPTPEVPSEPETPTPPTPEVPSEPETPTPPTPEVPSEPETPTPPTPEVPAEPGKPVPPAKEEPKKPSKPVEQGKVVTPVIEINEKVKAVAPTKKPQSKKSELPET | 5.24 | – | – | – |
| B1 | – | – | 1.25 | 0.18 |
